The supplement of paper PMC5998384

Assays:
HeLa Kyoto [1] = experiment: solubility change mitosis vs G1/S (difference of NP-40 vs SDS log2 ratios) (log2 ratio difference); higher = more soluble in mitosis
HeLa Kyoto [2] = experiment: thermal stability score vs G1/S (z-score of summed log2 fold changes over temperatures); higher = more thermally stable than in G1/S
HeLa Kyoto [3] = experiment: melting temperature (median over replicates), in situ; higher = more thermally stable
HeLa Kyoto [4] = experiment: solubility in G1/S (NP-40 vs SDS abundance) (log2 ratio); higher = more soluble; settings: cell cycle stage: G1/S
[5] = cell cycle stage: early G1 (4.5 h after nocodazole release)
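For melting temperature (median over replicates), in situ in this document: HeLa Kyoto cells synchronized by double thymidine or nocodazole block, proteins quantified by TMT10plex mass spectrometry, three independent biological replicates.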
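For solubility change mitosis vs G1/S (difference of NP-40 vs SDS log2 ratios) in this document: synchronized HeLa Kyoto cells (double thymidine block for G1/S, nocodazole release for mitosis), protein amounts in NP-40 versus SDS lysates quantified by mass spectrometry, three biological replicates.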
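For solubility in G1/S (NP-40 vs SDS abundance) in this document: HeLa Kyoto cells arrested at G1/S by double thymidine block, proteins quantified by TMT10plex mass spectrometry in mild NP-40 versus SDS extracts, three biological replicates.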
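For thermal stability score vs G1/S (z-score of summed log2 fold changes over temperatures) in this document: synchronized HeLa Kyoto cells, proteins quantified by TMT10plex mass spectrometry, three biological replicates, mitosis taken 0.5 h after nocodazole release, G1/S directly after double thymidine block.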

Sequence of CDK16 (chain, as listed by the source): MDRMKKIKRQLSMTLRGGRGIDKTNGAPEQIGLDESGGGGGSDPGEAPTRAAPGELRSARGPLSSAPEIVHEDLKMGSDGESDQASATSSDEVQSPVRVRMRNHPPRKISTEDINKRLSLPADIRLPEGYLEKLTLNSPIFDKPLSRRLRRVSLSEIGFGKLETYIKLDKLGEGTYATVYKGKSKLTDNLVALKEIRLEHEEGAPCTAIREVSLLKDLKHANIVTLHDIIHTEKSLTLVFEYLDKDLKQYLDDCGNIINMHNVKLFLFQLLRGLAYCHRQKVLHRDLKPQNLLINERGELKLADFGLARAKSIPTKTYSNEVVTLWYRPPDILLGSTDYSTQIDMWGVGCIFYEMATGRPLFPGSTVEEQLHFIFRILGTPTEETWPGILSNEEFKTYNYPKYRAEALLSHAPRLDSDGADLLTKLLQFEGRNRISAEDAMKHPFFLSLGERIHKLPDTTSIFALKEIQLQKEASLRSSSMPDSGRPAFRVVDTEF

Substance	solubility change mitosis (log2) (HeLa Kyoto [1])	thermal stability score (HeLa Kyoto [2]; [5])	thermal stability score (HeLa Kyoto [2]; cell cycle stage: mitosis)	melting temperature (HeLa Kyoto [3]; cell cycle stage: G1/S) [°C]	melting temperature (HeLa Kyoto [3]; cell cycle stage: mitosis) [°C]	solubility in G1/S (log2) (HeLa Kyoto [4])
MEDVEARFAHLLQPIRDLTKNWEVDVAAQLGEYLEELDQICISFDEGKTTMNFIEAALLIQGSACVYSKKVEYLYSLVYQALDFISGKRRAKQLSSVQEDRANGVASSGVPQEAENEFLSLDDFPDSRTNVDLKNDQTPSEVLIIPLLPMALVAPDEMEKNNNPLYSRQGEVLASRKDFRMNTCVPHPRGAFMLEPEGMSPMEPAGVSPMPGTQKDTGRTEEQPMEVSVCRSPVPALGFSQEPGPSPEGPMPLGGGEDEDAEEAVELPEASAPKAALEPKESRSPQQSAALPRRYMLREREGAPEPASCVKETPDPWQSLDPFDSLESKPFKKGRPYSVPPCVEEALGQKRKRKGAAKLQDFHQWYLAAYADHADSRRLRRKGPSFADMEVLYWTHVKEQLETLRKLQRREVAEQWLRPAEEDHLEDSLEDLGAADDFLEPEEYMEPEGADPREAADLDAVPMSLSYEELVRRNVELFIATSQKFVQETELSQRIRDWEDTVQPLLQEQEQHVPFDIHTYGDQLVSRFPQLNEWCPFAELVAGQPAFEVCRSMLASLQLANDYTVEITQQPGLEMAVDTMSLRLLTHQRAHKRFQTYAAPSMAQP [NCAPH2]	0.0239	-0.208	-0.203	48.5	48.6	0.197
MSYPGYPPTGYPPFPGYPPAGQESSFPPSGQYPYPSGFPPMGGGAYPQVPSSGYPGAGGYPAPGGYPAPGGYPGAPQPGGAPSYPGVPPGQGFGVPPGGAGFSGYPQPPSQSYGGGPAQVPLPGGFPGGQMPSQYPGGQPTYPSQINTDSFSSYPVFSPVSLDYSSEPATVTQVTQGTIRPAANFDAIRDAEILRKAMKGFGTDEQAIVDVVANRSNDQRQKIKAAFKTSYGKDLIKDLKSELSGNMEELILALFMPPTYYDAWSLRKAMQGAGTQERVLIEILCTRTNQEIREIVRCYQSEFGRDLEKDIRSDTSGHFERLLVSMCQGNRDENQSINHQMAQEDAQRLYQAGEGRLGTDESCFNMILATRSFPQLRATMEAYSRMANRDLLSSVSREFSGYVESGLKTILQCALNRPAFFAERLYYAMKGAGTDDSTLVRIVVTRSEIDLVQIKQMFAQMYQKTLGTMIAGDTSGDYRRLLLAIVGQ [ANXA7]	0.0486	2.36	2	50.7	51.3	0.437
MASMAAAIAASRSAVMSGNRPLDDRERKRFTYFSSLSPMARKIMQDKEKIREKYGPEWARLPPAQQDEIIDRCLVGPRAPAPRDPGDSEELTRFPGLRGPTGQKVVRFGDEDLTWQDEHSAPFSWETKSQMEFSISALSIQEPSNGTAASEPRPLSKASQGSQALKSSQGSRSSSLDALGPTRKEEEASFWKINAERSRGEGPEAEFQSLTPSQIKSMEKGEKVLPPCYRQEPAPKDREAKVERPSTLRQEQRPLPNVSTERERPQPVQAFSSALHEAAPSQLEGKLPSPDVRQDDGEDTLFSEPKFAQVSSSNVVLKTGFDFLDNW [C1ORF198]	0.253	-0.542	-1	51.6	53.2	-0.228
DNAJB6	0.0684	0.898	1.65	52.8	49.8	-0.0238
MATLLSHPQQRPPFLRQAIKIRRRRVRDLQDPPPQMAPEIQPPSHHFSPEQRALLYEDALYTVLHRLGHPEPNHVTEASELLRYLQEAFHVEPEEHQQTLQRVRELEKPIFCLKATVKQAKGILGKDVSGFSDPYCLLGIEQGVGVPGGSPGSRHRQKAVVRHTIPEEETHRTQVITQTLNPVWDETFILEFEDITNASFHLDMWDLDTVESVRQKLGELTDLHGLRRIFKEARKDKGQDDFLGNVVLRLQDLRCREDQWYPLEPRTETYPDRGQCHLQFQLIHKRRATSASRSQPSYTVHLHLLQQLVSHEVTQHEAGSTSWDGSLSPQAATVLFLHATQKDLSDFHQSMAQWLAYSRLYQSLEFPSSCLLHPITSIEYQWIQGRLKAEQQEELAASFSSLLTYGLSLIRRFRSVFPLSVSDSPARLQSLLRVLVQMCKMKAFGELCPNTAPLPQLVTEALQTGTTEWFHLKQQHHQPMVQGIPEAGKALLGLVQDVIGDLHQCQRTWDKIFHNTLKIHLFSMAFRELQWLVAKRVQDHTTVVGDVVSPEMGESLFQLYISLKELCQLRMSSSERDGVLALDNFHRWFQPAIPSWLQKTYNEALARVQRAVQMDELVPLGELTKHSTSAVDLSTCFAQISHTARQLDWPDPEEAFMITVKFVEDTCRLALVYCSLIKARARELSSGQKDQGQAANMLCVVVNDMEQLRLVIGKLPAQLAWEALEQRVGAVLEQGQLQNTLHAQLQSALAGLGHEIRTGVRTLAEQLEVGIAKHIQKLVGVRESVLPEDAILPLMKFLEVELCYMNTNLVQENFSSLLTLLWTHTLTVLVEAAASQRSSSLASNRLKIALQNLEICFHAEGCGLPPKALHTATFQALQRDLELQAASSRELIRKYFCSRIQQQAETTSEELGAVTVKASYRASEQKLRVELLSASSLLPLDSNGSSDPFVQLTLEPRHEFPELAARETQKHKKDLHPLFDETFEFLVPAEPCRKAGACLLLTVLDYDTLGADDLEGEAFLPLREVPGLSGSEEPGEVPQTRLPLTYPAPNGDPILQLLEGRKGDREAQVFVRLRRHRAKQASQHALRPAP [UNC13D]	-0.0257	-0.00435	0.185	51.5	51.4	-0.0281
CDK16	-0.105	-0.616	0.901	50.7	53.1	0.548
MAEGNTLISVDYEIFGKVQGVFFRKHTQAEGKKLGLVGWVQNTDRGTVQGQLQGPISKVRHMQEWLETRGSPKSHIDKANFNNEKVILKLDYSDFQIVK [ACYP1]	-0.0383	0.389	-1.31	52.3	52.7	0.223
MAGEGDQQDAAHNMGNHLPLLPAESEEEDEMEVEDQDSKEAKKPNIINFDTSLPTSHTYLGADMEEFHGRTLHDDDSCQVIPVLPQVMMILIPGQTLPLQLFHPQEVSMVRNLIQKDRTFAVLAYSNVQEREAQFGTTAEIYAYREEQDFGIEIVKVKAIGRQRFKVLELRTQSDGIQQAKVQILPECVLPSTMSAVQLESLNKCQIFPSKPVSREDQCSYKWWQKYQKRKFHCANLTSWPRWLYSLYDAETLMDRIKKQLREWDENLKDDSLPSNPIDFSYRVAACLPIDDVLRIQLLKIGSAIQRLRCELDIMNKCTSLCCKQCQETEITTKNEIFSLSLCGPMAAYVNPHGYVHETLTVYKACNLNLIGRPSTEHSWFPGYAWTVAQCKICASHIGWKFTATKKDMSPQKFWGLTRSALLPTIPDTEDEISPDKVILCL [CRBN]	-0.303	-0.823	-2.4	53.7	53.4	-0.152
MSLKNEPRVNTSALQKIAADMSNIIENLDTRELHFEGEEVDYDVSPSDPKIQEVYIPFSAIYNTQGFKEPNIQTYLSGCPIKAQVLEVERFTSTTRVPSINLYTIELTHGEFKWQVKRKFKHFQEFHRELLKYKAFIRIPIPTRRHTFRRQNVREEPREMPSLPRSSENMIREEQFLGRRKQLEDYLTKILKMPMYRNYHATTEFLDISQLSFIHDLGPKGIEGMIMKRSGGHRIPGLNCCGQGRACYRWSKRWLIVKDSFLLYMKPDSGAIAFVLLVDKEFKIKVGKKETETKYGIRIDNLSRTLILKCNSYRHARWWGGAIEEFIQKHGTNFLKDHRFGSYAAIQENALAKWYVNAKGYFEDVANAMEEANEEIFITDWWLSPEIFLKRPVVEGNRWRLDCILKRKAQQGVRIFIMLYKEVELALGINSEYTKRTLMRLHPNIKVMRHPDHVSSTVYLWAHHEKLVIIDQSVAFVGGIDLAYGRWDDNEHRLTDVGSVKRVTSGPSLGSLPPAAMESMESLRLKDKNEPVQNLPIQKSIDDVDSKLKGIGKPRKFSKFSLYKQLHRHHLHDADSISSIDSTSSYFNHYRSHHNLIHGLKPHFKLFHPSSESEQGLTRPHADTGSIRSLQTGVGELHGETRFWHGKDYCNFVFKDWVQLDKPFADFIDRYSTPRMPWHDIASAVHGKAARDVARHFIQRWNFTKIMKSKYRSLSYPFLLPKSQTTAHELRYQVPGSVHANVQLLRSAADWSAGIKYHEESIHAAYVHVIENSRHYIYIENQFFISCADDKVVFNKIGDAIAQRILKAHRENQKYRVYVVIPLLPGFEGDISTGGGNALQAIMHFNYRTMCRGENSILGQLKAELGNQWINYISFCGLRTHAELEGNLVTELIYVHSKLLIADDNTVIIGSANINDRSMLGKRDSEMAVIVQDTETVPSVMDGKEYQAGRFARGLRLQCFRVVLGYLDDPSEDIQDPVSDKFFKEVWVSTAARNATIYDKVFRCLPNDEVHNLIQLRDFINKPVLAKEDPIRAEEELKKIRGFLVQFPFYFLSEESLLPSVGTKEAIVPMEVWT [PLD1]	-0.0809	-0.632	-0.457	51.6	51.7	-0.336
MAAGGGGSCDPLAPAGVPCAFSPHSQAYFALASTDGHLRVWETANNRLHQEYVPSAHLSGTCTCLAWAPARLQAKESPQRKKRKSEAVGMSNQTDLLALGTAVGSILLYSTVKGELHSKLISGGHDNRVNCIQWHQDSGCLYSCSDDKHIVEWNVQTCKVKCKWKGDNSSVSSLCISPDGKMLLSAGRTIKLWVLETKEVYRHFTGHATPVSSLMFTTIRPPNESQPFDGITGLYFLSGAVHDRLLNVWQVRSENKEKSAVMSFTVTDEPVYIDLTLSENKEEPVKLAVVCRDGQVHLFEHILNGYCKKPLTSNCTIQIATPGKGKKSTPKPIPILAAGFCSDKMSLLLVYGSWFQPTIERVALNSREPHMCLVRDISNCWAPKVETAITKVRTPVMNSEAKVLVPGIPGHHAAIKPAPPQTEQVESKRKSGGNEVSIEERLGAMDIDTHKKGKEDLQTNSFPVLLTQGLESNDFEMLNKVLQTRNVNLIKKTVLRMPLHTIIPLLQELTKRLQGHPNSAVLMVQWLKCVLTVHASYLSTLPDLVPQLGTLYQLMESRVKTFQKLSHLHGKLILLITQVTASEKTKGATSPGQKAKLVYEEESSEEESDDEIADKDSEDNWDEDEEESESEKDEDVEEEDEDAEGKDEENGEDRDTASEKELNGDSDLDPENESEEE [WDR43]	0.783	-1.7	-6.5	58.6	55.7	-1.29
MMQGEAHPSASLIDRTIKMRKETEARKVVLAWGLLNVSMAGMIYTEMTGKLISSYYNVTYWPLWYIELALASLFSLNALFDFWRYFKYTVAPTSLVVSPGQQTLLGLKTAVVQTTPPHDLAATQIPPAPPSPSIQGQSVLSYSPSRSPSTSPKFTTSCMTGYSPQLQGLSSGGSGSYSPGVTYSPVSGYNKLASFSPSPPSPYPTTVGPVESSGLRSRYRSSPTVYNSPTDKEDYMTDLRTLDTFLRSEEEKQHRVKLGSPDSTSPSSSPTFWNYSRSMGDYAQTLKKFQYQLACRSQAPCANKDEADLSSKQAAEEVWARVAMNRQLLDHMDSWTAKFRNWINETILVPLVQEIESVSTQMRRMGCPELQIGEASITSLKQAALVKAPLIPTLNTIVQYLDLTPNQEYLFERIKELSQGGCMSSFRWNRGGDFKGRKWDTDLPTDSAIIMHVFCTYLDSRLPPHPKYPDGKTFTSQHFVQTPNKPDVTNENVFCIYQSAINPPHYELIYQRHVYNLPKGRNNMFHTLLMFLYIIKTKESGMLGRVNLGLSGVNILWIFGE [TMEM209]	-0.145	0.688	3.82	52	53.2	0.161
